Assay results as given in the domain aggregation screens of Martell et al. (2025).

Test: soluble fraction after stress (log2 fold change); higher = more stays soluble; pooled small domains, quantitative proteomics
Conditions: stress: 75 degC
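Further: 20 min heating vs room temperature control held 20 min.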

| Sequence | soluble fraction (log2) |
| --- | --- |
| HMTVTMADISQAYNEKRYLTTISLSNTYLTFAKPTTELLSIRYRTYFIIGKYAESLTEIAKL | 0.294 |
| HMTVTTDITQYFLQENGLLNGPNARQLRQKIGETLNIGYTNGKQLLKRAQQFGLTRDQILTALKK | -0.638 |
| HMTVVIKVQASQLESWKSSAGTEIKAKLIAVEDEKTYLFVTETGKTIRATAAQLDESSVSRARKLAGL | -2.37 |
| HMTYGYFELKAKNLDSLKQFLKGIAQVESIEEENNGLKVFLKNELESEELSEKLAEAKIFVSHLAKKK | -0.265 |
| HMTYKPAADFKPSDTSSLKEGMKVEHPKFGFGTVMKMEEVGTERKARINFADFGEKTLLLSFAKLKIHEN | -0.256 |
| HMTYNEYPEKEMQDLIDKSISQQEQAASQYGYSLGDYVTARYGFQSESDFREYVQGLAEDYMKEKI | -0.476 |
| HMTYQHQSIIHRRTRGAILTAAKELLAESGISGTNMIEIADRAQVSRASLYNHFRDKHEVFLALVES | -0.591 |
| HMTYSAWIEKAYSELEKKGITEAELSDALDKRGINLEDLKLMGPDEAVKYQSEVEGVVLELSKSKE | 0.154 |
| HMTYSEEEIERDLYVRGTLYQIGDLVENKIDGTSGEIVRRGPNYVQYSDGENFYKAFLHSIQEV | 0.0161 |
| HMTYTMVAYGSQGDAVRQLQSELNRHGYQLDEDGVFGKKTRAAVRDYQKKNSLRLDGIAGDETWGSLLA | 0.696 |
| HMTYTPRAGSLASQVIGFFRHNPDEELLLDDITDKFDATRGNIHTLLAEAVRFKLLARYRNDDGDYVYKPG | -3.06 |
| HMVAADTVQVPDVTGKTVADAKQALISAGLQVGTVTAKDGKETANTILETSPAAGTSVDKGSKVNLVYSTG | 0.00808 |
| HMVAAITDLPVKSVNGRQMYYYVVRKGETVYSLTHTLGITHDRLVKANRSVEDGLRAGQILYFPVSEFG | -2.95 |
| HMVAELAEMAENKNITSAQLALAWILKQSENIIPIPGTKRIKYLNENIEAVNVDLSKEDVENIENLLRKYP | -0.104 |
| HMVAGHLQEKNGQFYAVLSYKDTKGKRRTKWVPTGLMVRGNKKRAEAMLNDIRRKFVPPEQED | -0.474 |
| HMVAGPDEPLSDREQGVLDLLAEGLSNKAISKQLGISVATVKSHLSNIYGKLQAENRMQAVARARELGLM | ≥ 1.04 |
| HMVAISNTSGLAGVAYWIQSNIPKGIDIRKDNPGIVTIKNWIDEEYRKGRTTTISEEEMFKLVREYMPEL | -1.87 |
| HMVAMGQRVVPLTHLSIDDVRRLLESTYGKDSGIEVTKPGTAAKGVIVTAPRTELDGIVALVKQA | -0.113 |
| HMVAMYLRVGISNGRRYLSIVQGYRDQVTKKVRHNTVKSLGYLDDLEKHYPDPIAHFKAVVEEMNKKQALE | -2.04 |
| HMVANDQILNQYGISDREAEIIGLLIEGLSNQQIAKQLYISPNTVKTHIKNIYAKVGVNNRLQLFSLLK | -0.435 |

| Sequence | soluble fraction (log2) |
| --- | --- |
| HMVANLPFNYKVYAKKGKLYVVISYKDSNGKYKKKWIRTGLDEGTKKKEVNTVADQIAAEYYSSMRLE | -3.52 |
| HMVAQQINDFRSERDASTGTLKRPLFDTLRDVISSRAQAYVSATGKPVTVEDLDRIYQAVEAEAKQAL | 0.0174 |
| HMVDDELTARRRVNLRRIADELGGAAAVARKTQKSVQQISSMLNGTKSFGSKIARDIEPKLGLPLQSLDKE | 0.0147 |
| HMVDDRPVTGTTLIREWQGRAYEVIVQAGHFEFQGQRYQSLSAIAKVITGTVWNGWAFFGLR | -0.415 |
| HMVDDTGLPTVLISDGRLLERNLHRLHLDHTWLQRRLEENNIPSIQSLFLLTVDKQHQLYFLKK | -1.74 |
| HMVDGTPALTDLKKVSKPGRRHYTGSQEIPRVLNGLGISIVSTSKGIMTGAQARRQKVGGELLAFV | 0.0345 |
| HMVDIIMDLLEAVAQARPADAFIKSLHIQYQERGGLSKKQLQGLYGKAAKTAGIPPGKLATLEAIILKRP | -2.52 |
| HMVDITPDLIRTLLERFGEYGVTKEHIEARIQRHIESILPAQVVQLRKTYNSLKDGMSQPSDWFDI | -1.9 |
| HMVDLEINGRQTLQFVANKYGIPVEKLATDLNIPSDRFGEKLGRLRRQYAFTMNDVRKSILKNK | -0.588 |
| HMVDPELFIWVESSKEPVYHLAYKIELFVHSTDPQDDVPVHRWQVFVDAHNGNILDKFDEVR | -0.292 |
| HMVDPRWETPDENLAEQIKSVMPVMWVYDREAKSFVERPAIDFSFSIFERTTLYIYDKDGNEIGFAR | -0.0443 |
| HMVDQVDKDRFLEALTQLGGSAGNVRLRETLQWEEEVYVIIKDALVKSGTILTGRGRGGSVLLASA | -0.95 |
| HMVDSLTIGRRIRQLRTERGMTLEELAAAVGRAPSQLSMIENGRREPKLTLLQAIARALGSTLDALLE | -0.562 |
| HMVDVNLLKYYVMESGKSLTDVAAAIGVTPATLHRKMSGESDFYRKEMQDIASYLGLDRDTIDRIFF | -1.84 |
| HMVEDIVLTDAQIEFVKQQAKNGLSAFQISEMIWPEMSVKRFSKQHVAVLDFLREYEPAYVHDSE | 0.156 |
| HMVEELDVQFIKLTVQGDHPWKNKKIRELSIPWDLLFVLIIRGDKSIIPNGKTTIKDGDIVVVSAPEYRG | -1.12 |
| HMVEFLMESTNGMYGIVKEGSSYYVQKGINESSLDYIGGMFMKDKNRFSSYSTALKRLELISGQET | -0.419 |
| HMVEGMQFDRGYQSPYFVTNAEKMVAELDNPYILLVEKKISSMKELLPVLEPVAQQGKSLLIISEEVEG | 0.0546 |
| HMVEGTVKWFNDEKGFGFIEQEGGKDVFVHFSAINGSGRRTLHEGQRVTMEVTQGQKGPQAENVNP | 0.147 |
